Data reported in patent US12226490B2, “Anti-ROR1 antibody conjugates, compositions comprising anti ROR1 antibody conjugates, and methods of making and using anti-ROR1 antibody conjugates preliminary class” (Sutro Biopharma, Inc., priority 2022, dated 2025).

Columns and labels:
human ROR1-Fz = target: T1, human ROR1-Fz (Homo sapiens, UniProt Q01973); experiment: Biacore off-rate and kinetic analysis, ROR1 frizzled domain; type: binding; conditions: for kd1 / ka1: Sample ROR1 Fz, SPR; for ka1: 1-1 Langmuir; for Biacore human ROR1-Fz ka / Biacore human ROR1-Fz kd: Table 11 (SP34 light chain)
T1 construct: Frizzled (Fz, residues 165-305); HIS6 (C); purchased Acro Biosystems; host or cells: HEK293
T1 sequence (Q01973 165-305): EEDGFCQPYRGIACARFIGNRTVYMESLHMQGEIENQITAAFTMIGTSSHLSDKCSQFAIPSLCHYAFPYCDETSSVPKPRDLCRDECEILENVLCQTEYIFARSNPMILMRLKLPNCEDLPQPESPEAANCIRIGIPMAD
Description: Anti-Fc polyclonal antibodies were immobilized onto a CM5 chip (GE Life Sciences) using amine coupling chemistry (from Amine Coupling Kit, GE Life Sciences). The immobilization steps were carried out at a flow rate of 25 μL/min in 1×HBS-EP+ buffer (GE Life Sciences; 10× Stock diluted before use). The sensor surfaces were activated for 7 min with a mixture of NHS (0.05 M) and EDC (0.2 M). The Anti-Fc antibodies were injected over all 4 flow cells at a concentration of 25 ug/ml in 10 mM sodium acetate, pH 4.5, for 7 min. Ethanolamine (1 M, pH 8.5) was injected for 7 min to block any remaining activated groups. An average of 12,000 response units (RU) of capture antibody was immobilized on each flow cell.
Off-rate and kinetic binding experiments were performed at 25° C. using 1×HBS-EP+ buffer. Test and control antibodies were injected over the anti-Fc surface at concentrations of 5-10 μg/mL for 12 seconds at a flow rate of 10 μL/min on flow cells 2, 3 and 4, followed by a buffer wash for 30 seconds at the same flow rate. Kinetic characterization of antibody samples was carried out with a range of antigen concentrations from 1-100 nM and 1 injection of 0 nM antigen (for example, 100, 50, 25, 6.25, 1.56 and 0 nM). After capturing ligand (antibody) on the anti-Fc surface, the analyte (hROR1, Fz or Kr domains, Acro Biosystems, Delaware) was bound for 180 seconds, followed by a 600 second dissociation phase at a flow rate of 50 μL/min. Between each ligand capture and analyte binding cycle, regeneration was carried out using 2 injections of 10 mM Glycine pH 2.0 for 30 seconds at 30 μL/min, followed by a 30 second buffer wash step.
The data was fit with the Biacore T200 Evaluation software, using a 1-1 Langmuir binding model. KD (affinity, nM) was determined as a ratio of the kinetic rate constants calculated from the fits of the association and dissociation phases.
For anti-CD3-LC-containing IgGs that had detectable ROR1-binding in ELISA (1944-A07 and 1987-C05 variants), those antibodies were further tested for binding by surface plasmon resonance (SPR). Binding kinetics were assessed to the ROR1-frizzled domain (hROR1-Fz) or the ROR1-extracellular domain (hROR1) for 1944-A07 and 1987-C05 variants, respectively. Briefly, anti-ROR1 antibodies were captured via anti-human Fc polyclonal antibodies immobilized to a CM5 chip, and ROR1 recombinant proteins were flowed across the surface to assess binding kinetics. hROR1 or hROR1-Fz domain (Acro Biosystems, Delaware) binding was tested at 100, 50, 25, 6.25, 1.5625 nM. The data was fit with the Biacore™ T200 Evaluation software, using a 1-1 Langmuir binding model. KD (affinity, nM) was determined as a ratio of the kinetic rate constants calculated from the fits of the association and dissociation phases.

[1] = Differential scanning fluorimetry (protein thermal shift; TM1 Fc, TM2 Fab); type: physicochemical; conditions: melting temperature of the Fab domain; Table 11
Description: A protein thermal shift assay was carried out by mixing the protein to be assayed with an environmentally sensitive dye (SYPRO Orange, Life Technologies Cat #S-6650) in a phosphate buffered solution (PBS), and monitoring the fluorescence of the mixture in real time as it underwent controlled thermal denaturation. Protein solutions between 0.2-2 mg/mL were mixed at a 1-1 volumetric ratio with a 1-500 PBS-diluted solution of SYPRO Orange (SYPRO Orange stock dye is 5000× in DMSO). 10 μL aliquots of the protein-dye mixture were dispensed in quadruplicate in a 384-well microplate (Bio-Rad Cat #MSP-3852), and the plate was sealed with an optically clear sealing film (Bio-Rad Cat #MSB-1001) and placed in a 384-well plate real-time thermocycler (Bio-Rad CFX384 Real Time System). The protein-dye mixture was heated from 25° C. to 95° C., at increments of 0.1° C. per cycle (˜1.5° C. per minute), allowing 3 seconds of equilibration at each temperature before taking a fluorescence measurement. At the end of the experiment, the transition melting temperatures (TM1 and TM2) were determined using the Bio-Rad CFX manager software. TM1 represents the melting temperature of the Fc domain. TM2 represents the melting temperature of the Fab domain.
For the thermal stability of an antibody, the first melting peak (Tm1) coincides with the unfolding of the CH2 domain (FC stability), while the second melting peak (Tm2) occurs upon unfolding of the Fab domain.

| kd1 (human ROR1-Fz) | ka1 (human ROR1-Fz) | Biacore human ROR1-Fz ka (human ROR1-Fz) | Biacore human ROR1-Fz kd (human ROR1-Fz) | Molecule | TM2 [1] |
| --- | --- | --- | --- | --- | --- |
| 0.119 s⁻¹ | 1.85e+06 M⁻¹ s⁻¹ | – | – | 1944-A07 HC w/hUCHT1 LC3: HC of lead antibody 1944-A07 co-expressed with LC "derived from anti-CD3 antibodies": hUCHT1-LC3 (antibody, V domains shown) VH: EVQLVESGGGLVQPGGSLRLSCAASGFNITGYYIHWVRQAPGKGLEWVGYISPNSGSTYYADSVKGRFTISADTSKNTAYLQMNSLRAEDTAVYYCARDSRRYVRPFDYWGQGTLVTVSS VL: DIQMTQSPSTLSASVGDRVTITCRASQDIRNYLNWYQQKPGKAPKLLIYYTSRLHSGVPSRFSGSGSGTEYTLTISSLQPDDFATYYCQQGNTLPWTFGGGTKVEIK | – |
| – | – | 139000 M⁻¹ s⁻¹ | 0.000343 s⁻¹ | SRP2196-A04 (antibody, V domains shown) VH: EVQLVESGGGLVQPGGSLRLSCAASGFNISPYYIHWVRQAPGKGLEWVGQIYPISGHTYQADSVKGRFTISADTSKNTAYLQMNSLRAEDTAVYYCARESRRYVGPFGYWGQGTLVTVSS VL: QAVVTQESALTTSPGETVTLTCRSSTGAVTTSNYANWVQEKPDHLFTGLIGGTNKRAPGVPARFSGSLIGDKAALTITGAQTEDEAIYFCALWYSNLWVFGGGTKLTVL | – |
| 0.00228 s⁻¹ | 360000 M⁻¹ s⁻¹ | – | – | 1944-A07 HC w/hSP34 LC3: HC of lead antibody 1944-A07 co-expressed with LC "derived from anti-CD3 antibodies": hSP34-LC3 (antibody, V domains shown) VH: EVQLVESGGGLVQPGGSLRLSCAASGFNITGYYIHWVRQAPGKGLEWVGYISPNSGSTYYADSVKGRFTISADTSKNTAYLQMNSLRAEDTAVYYCARDSRRYVRPFDYWGQGTLVTVSS VL: QTVVTQEPSLTVSPGGTVTLTCGSSTGAVTSGYYPNWFQQKPGQAPRGLIGGTKFLAPGTPARFSGSLLGGKAALTLSGVQPEDEAEYYCALWYSNRWVFGGGTQLTVTG | – |
| – | – | 175000 M⁻¹ s⁻¹ | 0.000682 s⁻¹ | SRP2196-A05 (antibody, V domains shown) VH: EVQLVESGGGLVQPGGSLRLSCAASGFNITNYYIHWVRQAPGKGLEWVGYISPNSGATYQADSVKGRFTISADTSKNTAYLQMNSLRAEDTAVYYCARDSRRYVRSWDYWGQGTLVTVSS VL: QAVVTQESALTTSPGETVTLTCRSSTGAVTTSNYANWVQEKPDHLFTGLIGGTNKRAPGVPARFSGSLIGDKAALTITGAQTEDEAIYFCALWYSNLWVFGGGTKLTVL | 71 °C |
| – | – | – | – | SRP2196-A01 (antibody, V domains shown) VH: EVQLVESGGGLVQPGGSLRLSCAASGFNITGYYIHWVRQAPGKGLEWVGQISPNSGYTYYADSVKGRFTISADTSKNTAYLQMNSLRAEDTAVYYCARDSRRYVRGWDYWGQGTLVTVSS VL: QAVVTQESALTTSPGETVTLTCRSSTGAVTTSNYANWVQEKPDHLFTGLIGGTNKRAPGVPARFSGSLIGDKAALTITGAQTEDEAIYFCALWYSNLWVFGGGTKLTVL | 74 °C |
| – | – | 186000 M⁻¹ s⁻¹ | 0.00064 s⁻¹ | SRP2196-A07 (antibody, V domains shown) VH: EVQLVESGGGLVQPGGSLRLSCAASGFNITGYYIHWVRQAPGKGLEWVGQISPNSGSTYYADSVKGRFTISADTSKNTAYLQMSSLRAEDTAVYYCARDSRRYVRGWDYWGQGTLVTVSS VL: QAVVTQESALTTSPGETVTLTCRSSTGAVTTSNYANWVQEKPDHLFTGLIGGTNKRAPGVPARFSGSLIGDKAALTITGAQTEDEAIYFCALWYSNLWVFGGGTKLTVL | 74 °C |
| – | – | 180000 M⁻¹ s⁻¹ | 0.00069 s⁻¹ | SRP2196-A06 (antibody, V domains shown) VH: EVQLVESGGGLVQPGGSLRLSCAASGFNITGYYIHWVRQAPGKGLEWVGQISPNSGSTHQADSVKGRFTISADTSKNTAYLQMNSLRAGDTAVYYCARDSRRYVRGWDYWGQGTLVTVSS VL: QAVVTQESALTTSPGETVTLTCRSSTGAVTTSNYANWVQEKPDHLFTGLIGGTNKRAPGVPARFSGSLIGDKAALTITGAQTEDEAIYFCALWYSNLWVFGGGTKLTVL | 70 °C |
| – | – | 169000 M⁻¹ s⁻¹ | 0.000275 s⁻¹ | SRP2196-A03 (antibody, V domains shown) VH: EVQLVESGGGLVQPGGSLRLSCAASGFNITQYHIHWVRQAPGKGLEWVGYISPNSGSTHEADSVKGRFTISADTSKNTAYLQMNSLRAEDTAVYYCARDSRRYVRGWDYWGQGTLVTVSS VL: QAVVTQESALTTSPGETVTLTCRSSTGAVTTSNYANWVQEKPDHLFTGLIGGTNKRAPGVPARFSGSLIGDKAALTITGAQTEDEAIYFCALWYSNLWVFGGGTKLTVL | 70 °C |
| – | – | – | – | SRP2196-A02 (antibody, V domains shown) VH: EVQLVESGGGLVQPGGSLRLSCAASGFNITGYYIHWVRQAPGKGLEWVGQISPNSGATHDADSVKGRFTISADTSKNTAYLQMNSLRAEDTAVYYCARDSRRYVRGWDYWGQGTLVTVSS VL: QAVVTQESALTTSPGETVTLTCRSSTGAVTTSNYANWVQEKPDHLFTGLIGGTNKRAPGVPARFSGSLIGDKAALTITGAQTEDEAIYFCALWYSNLWVFGGGTKLTVL | 71 °C |
| – | – | 183000 M⁻¹ s⁻¹ | 0.00078 s⁻¹ | SRP2196-A08 (antibody, V domains shown) VH: EVQLVESGGGLVQPGGSLRLSCAASGFNITGYYIHWVRQAPGKGLEWVGYISPNSGSTYKADSVKGRFTISADTSRNTAYLQMNSLRAEDTAVYYCARDSRRYVRSWDYWGQGTLVTVSS VL: QAVVTQESALTTSPGETVTLTCRSSTGAVTTSNYANWVQEKPDHLFTGLIGGTNKRAPGVPARFSGSLIGDKAALTITGAQTEDEAIYFCALWYSNLWVFGGGTKLTVL | 69 °C |
| – | – | – | – | SRP2196-B05 (antibody, V domains shown) VH: EVQLVESGGGLVQPGGSLRLSCAASGFNITGYYIHWVRQAPGKGLEWVGQISPNSGATYHADSVKGRFTISADTSKNTAYLQMNSLRAEDTAVYYCARDSRRYVRGWDYWGQGTLVTVSS VL: QAVVTQESALTTSPGETVTLTCRSSTGAVTTSNYANWVQEKPDHLFTGLIGGTNKRAPGVPARFSGSLIGDKAALTITGAQTEDEAIYFCALWYSNLWVFGGGTKLTVL | 73 °C |
| – | – | 597000 M⁻¹ s⁻¹ | 0.0085 s⁻¹ | SRP1944-A07 w SP34 LC3 (antibody, V domains shown) VH: EVQLVESGGGLVQPGGSLRLSCAASGFNITGYYIHWVRQAPGKGLEWVGYISPNSGSTYYADSVKGRFTISADTSKNTAYLQMNSLRAEDTAVYYCARDSRRYVRPFDYWGQGTLVTVSS VL: QTVVTQEPSLTVSPGGTVTLTCGSSTGAVTSGYYPNWFQQKPGQAPRGLIGGTKFLAPGTPARFSGSLLGGKAALTLSGVQPEDEAEYYCALWYSNRWVFGGGTQLTVTG | – |
